The text below walks through data of publication PMC2910593 (PLoS Biology, 2010).

For data set [1], the target named is CaMKI catalytic domain (human) (UniProt Q8IU85). Nature of the data set: ITC; VP-ITC, 10°C, 20 mM HEPES pH 7.5, 150 mM NaCl, 5 mM DTT, 1 mM CaCl2; Ca2+/CaM titrated into the kinase domains, or the peptide titrated into Ca2+/CaM; single binding site model. A general note: Isothermal titration calorimetry measures the heat released or taken up as one component is titrated into another.
Sequence of CaMKI catalytic domain (human) (Q8IU85 1-333): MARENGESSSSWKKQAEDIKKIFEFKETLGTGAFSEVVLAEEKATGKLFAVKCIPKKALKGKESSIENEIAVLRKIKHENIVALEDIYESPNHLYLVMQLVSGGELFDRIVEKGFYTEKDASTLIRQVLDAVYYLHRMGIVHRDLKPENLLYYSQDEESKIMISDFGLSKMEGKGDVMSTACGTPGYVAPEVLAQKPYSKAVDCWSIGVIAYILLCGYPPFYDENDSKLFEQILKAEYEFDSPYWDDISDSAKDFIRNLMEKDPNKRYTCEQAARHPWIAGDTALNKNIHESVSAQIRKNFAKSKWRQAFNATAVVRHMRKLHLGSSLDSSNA

For data set [2], the target named is CaMKIIα catalytic domain (human) (UniProt Q9UQM7). The data set is described as above.
Data set [3] addresses CaMKIIβ catalytic domain (human) (UniProt Q13554). The description is as above.
Data set [4] has as its target CaMKIIγ catalytic and regulatory domain (human) (UniProt Q13555). Described as above.
In data set [5] the target is CaMKIV catalytic domain (human) (UniProt Q16566). The description is as above.
Sequence of CaMKIV catalytic domain (human) (Q16566 15-340): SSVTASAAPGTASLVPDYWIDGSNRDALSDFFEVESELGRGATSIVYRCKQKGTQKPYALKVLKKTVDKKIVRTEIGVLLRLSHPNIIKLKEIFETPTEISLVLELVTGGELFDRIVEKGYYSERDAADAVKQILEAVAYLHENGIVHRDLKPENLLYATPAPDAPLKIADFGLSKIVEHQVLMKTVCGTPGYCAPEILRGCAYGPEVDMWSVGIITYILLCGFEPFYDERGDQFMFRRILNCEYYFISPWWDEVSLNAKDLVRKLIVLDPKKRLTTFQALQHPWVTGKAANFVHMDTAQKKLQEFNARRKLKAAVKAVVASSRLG
The target in data set [6] is CaMKIIα/Ca^2+/CaM complex (human) (UniProt Q9UQM7). Kind of data set: AUC; sedimentation velocity of the CaMKII/Ca2+/CaM complexes, 4°C, 10 mM HEPES pH 7.5, 300 mM NaCl, 1 mM CaCl2, 5 mM DTT; heterodimer to heterotetramer, KD estimated from the proportions of the peaks.
The target in data set [7] is CaMKIIδ/Ca^2+/CaM complex (human) (UniProt Q13557). The description is as above.
Data set [8] has as its target CaMKIIγ oligomerization domain (human). Nature of the data set: crystal structure; isolated oligomerization domains of human CaMKIIγ (2.7 Å) and CaMKIIδ (2.8 Å).
Data set [9] deals with the molecule itself. The data set is described as above.

“And” between values parts separate entries of the source, which are not always exact repeats. Equal values may be shown once.

As a reminder, the stoichiometry N is a count of units in the complex or per binding partner. The term Kd denotes the concentration at which binding is half-saturated.

Sequence of CaMKIIβ catalytic domain (human) (Q13554 11-302): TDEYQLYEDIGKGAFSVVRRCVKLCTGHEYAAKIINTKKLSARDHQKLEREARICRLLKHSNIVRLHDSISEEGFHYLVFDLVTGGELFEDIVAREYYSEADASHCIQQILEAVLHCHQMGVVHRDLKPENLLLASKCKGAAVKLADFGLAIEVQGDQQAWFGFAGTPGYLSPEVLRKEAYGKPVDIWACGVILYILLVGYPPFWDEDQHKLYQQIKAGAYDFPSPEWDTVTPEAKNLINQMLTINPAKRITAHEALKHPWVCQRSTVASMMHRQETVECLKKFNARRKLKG
Sequence of CaMKIIγ catalytic and regulatory domain (human) (Q13555 5-317): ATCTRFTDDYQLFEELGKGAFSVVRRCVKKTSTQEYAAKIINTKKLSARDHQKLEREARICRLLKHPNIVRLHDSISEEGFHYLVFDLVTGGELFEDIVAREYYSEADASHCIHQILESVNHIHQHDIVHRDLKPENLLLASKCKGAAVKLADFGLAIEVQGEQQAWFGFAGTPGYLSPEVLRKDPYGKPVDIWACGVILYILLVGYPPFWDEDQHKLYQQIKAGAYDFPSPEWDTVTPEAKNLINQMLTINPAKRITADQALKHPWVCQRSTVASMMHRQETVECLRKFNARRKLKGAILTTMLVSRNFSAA

As to “calmodulin (Ca^2+/CaM) (from UniProt P0DP23 1-149) (natural protein)”, the dH in [1] was -5.8 kcal/mol and -5.1 kcal/mol; in data set [2], 12.1 kcal/mol; in [3], 8.9 kcal/mol; in data set [4], 8.6 kcal/mol; in [5], -10.2 kcal/mol. Further, the stoichiometry N was found to be 0.93 in data set [1]; 0.863 in [2]; 0.922 in [3]; 0.981 in [4]; 0.83 in data set [5].

“CaMKIIα/Ca^2+/CaM complex (from UniProt Q9UQM7 13-301; P0DP23 1-149)”: the Kd in [6] was 120 µM.

In the case of “CaMKIIδ/Ca^2+/CaM complex (from UniProt Q13557 11-335; P0DP23 1-149)”, in data set [7], the Kd was 50 µM.

Take “CaMKIIγ oligomerization domain (domain or fragment)”: the stoichiometry N in data set [8] is 12.

B1: CaMKIIδ oligomerization domain (domain or fragment, human, UniProt Q13557 334-475, looked up)
chain: SNTTIEDEDVKARKQEIIKVTEQLIEAINNGDFEAYTKICDPGLTAFEPEALGNLVEGMDFHRFYFENALSKSNKPIHTIILNPHVHLVGDDAACIAYIRLTQYMDGSGMPKTMQSEETRVWHRRDGKWQNVHFHRSGSPTV
For the molecule B1, the “stoichiometry N” value in data set [9] was 14.
